Laboratory results: publication PMC11797554 (2024)

Experiments:
[1] = biological target: T1, SCRM KiDoK peptide (Arabidopsis, UniProt Q9LSE2, biotin); assay: BLI
[2] = biological target: T1, SCRM KiDoK peptide; assay: BLI; in presence of kC9
[3] = biological target: T1, SCRM KiDoK peptide; assay: BLI; in presence of kC9; kinetic fit

B1: MPK6ΔNt (29 to 305) (domain or fragment)
chain: QMPGIENIPATLSHGGRFIQYNIFGNIFEVTAKYKPPIMPIGKGAYGIVCSAMNSETNESVAIKKIANAFDNKIDAKRTLREIKLLRHMDHENIVAIRDIIPPPLRNAFNDVYIAYELMDTDLHQIIRSNQALSEEHCQYFLYQILRGLKYIHSANVLHRDLKPSNLLLNANCDLKICDFGLARVTSESDFMTEYVVTRWYRAPELLLNSSDYTAAIDVWSVGCIFMELMDRKPLFPGRDHVHQLRLLMELIGTPSEEELEFLNENAKRYIRQLPPYPRQSITDKFPTVHPLAIDLIEKMLTFDPRRRITVLDALAHPYLNSLHDISDEPECTIPFNFDFENHALSEEQMKELIYREALAFNPEYQQ
For B1, which koff [1] is on record?
Its koff is 0.0327 s⁻¹.

And the koff [2]?
The koff was 0.0178 s⁻¹.

And the Kd [3]?
The Kd was 1050 nM.
